We go through 13 sequences from the DeepSol protein solubility set.

The data set can be described thus: soluble on expression in E. coli; label from the status in PepcDB or PDB records.
Take “MGSDKIHHHHHHMTHQANDAVAPASGMIELSHSFDANRFLAAVDRDERATLIANLQLVHLKSGQVLCEPGEMLTAVYLPVTTAISLQYVSTGGMTLEVAQIGSESVVCDDVIGGSGRMPCRAVACRDGFVYRLDRRIFAAAFDASPVIRHLVFVCVRLLMAQVAQITFCSRHHVLKHQLCRWFLLAYDRSRSIEIQVTHSMLAQMLGVRRETVTDAAGEIQRLGLIRQYRSSIVLADLAGLEKLSCGCRAIVRDEMKRILSADSGVSAAARA”: the “soluble on expression in E. coli” value is given as “not soluble”.

For “MSLIEQLIQQAQPYWQQYIEHEFVQQLAKGTLPKACFQHYLKQDYLYLFHYSRAFALGVFKAKNFAEMETPRKTLEILCQEIQLHLNYCREWGISEQEIFTTQESAACIAYTRYLLDCGMTGSLAELYAAVTPCALGYAQVARYITQHYPRLPNNPYQTWIDTYASEEFQQAAQETVDFLTALCKPLNPSQLAEIQQIFTTATRMEIAFWQMGLDLAEGGSHHHHHH”, the “soluble on expression in E. coli” value is reported as “soluble”.

“MGSDKIHHHHHHMMPELKSALYAGKVMHQRLKPRRHRLSYRIFFLLLDLDEIDAMSKRLRLLSHNRFNLFGFADADHGDGSGGSLKAYVEDMLKTAGIETDAGPIRLLSMPRMLGYAFNPISIYFCHSRQGDLVAILYEVNNTFGQRHSYLIPVGERHDETVRQHCDKRFYVSPFMAMGLNYRFRIGLPGENVAIHITASDDQGPLMVASFAGKRRALSDASLLRAFISYPLLTLKVTAGIHWEALRLWAKGIRLQERPAPPHNSITHVAMHGRLRRKAEPDVI”: the “soluble on expression in E. coli” value is on record as “not soluble”.

As for “GIVATRYRDFSPLLEALTQLLFYVTPIVWTTETLYSQGGAVSERAKLAMLNPLYHYMEVIRAPLIGAPIHP”, the “soluble on expression in E. coli” value was “not soluble”.

As for “GTVKVYLPNKQRTVVTVRDGMSVYDSLDKALKVRGLNQDCCVVYRLIKGRKTVTAWDTAIAPLDGEELIVEVL”, the “soluble on expression in E. coli” value is listed as “soluble”.

On to “MHKKLNPKSMKRENKKMVLRYLIESGPHSRVEIARKTGLAQSAIWRIIEELVNEGLVEEKGTATGRRRKAVTYGPTRSFITSIIYNVEVLETLVAVGFLDGAWRIIERFSTPKDFDEFKQRVTSSYENILKSHVLNKNISKVVFSLPGIVNTESKFLIHAPNLGWRNIDFRREFGNLDLEVLVENDSNLSLLAEEFFSQDVKESDVAFFLYFGEGIGGAISVNGKIVRGENFAAGEIGHVVLDVKNGKEVEEFLSISKLVERMEKFVELQGESLDEKFRYIKRLWFSGEKNVKETMEEFLQHVAVVLKNIIYFLNPGVIVLGGVVNDLWDTFGSFIKRELEKITDREIANVLIRDTIFKEISPSLVGGNVLAIEEFLRQIT”, for which the “soluble on expression in E. coli” value is reported as “not soluble”.

Turning to “MIKKQDPLNHPESVDVAIIGAGPAGAVAAALLRQAGQQVLVLERQHFPRFSIGESLLPQSMAYLEQAGMLRAVVEAGFQYKNGAYFVHGDKTAAFDFRDKHSDGWGTTYQVERAAFDQILINCAADQGADVRFGHSVRAVQPGDAPVLEVQTESGDTYTVHARFILDASGFGRVLPRLLNLEAPTGMPLRAALFSHVQDALPAGMTDRNKICIAVHPERRDVWYWMIPLANGRSSVGCVAEASFLDIPEAEREAALRALIRAEPNIASLIGDAPFLMPVRHIGGYAANVEKLHGPGYALLGNAGEFLDPVFSSGVTIALRSADLAVRALLRQLAGETVDWQSVYDVPLRRGIDTFRAFIERWYTGELQDIIFHPQQAPGIRRMISAILAGYAWDETNPFVADPVRRLNTLHEVCRLEAVLEHHHHHH”, the “soluble on expression in E. coli” value is listed as “not soluble”.

On to “MQITSNTRLNELWELYFQTLDKSTSWTFTKESFYNRYLKEPLGKKKLDSIQEHHIMAIIRHLQAEGMATRTVNTTLEILRPLFDFAIKNKALRDNPTRFIVLKKDNLEHHHHHH”, for which the “soluble on expression in E. coli” value is “not soluble”.

As to “MEQSIFRDEKGDCPIVYLAGTLISIGSKPSARYGVCWGAGHAKNEGGPVAGSQTSLRAELTALRRTLEIALAEDITKLIIVFPSKMLGEQLEVWERRPEQHASFENSDILYRVEQLFGEAEARMYFSIDLPTPPDPRAHGYTKALQLARTMLVASRISRNSQITTVAIFAICEKEGKCDALAKYGVYWGQDDHRNEAGLVEDGQTSLRAIMCAVRSALRTAAMHGLKRVHFLTRRIDIINIIKKLAKGEEEDSPGKRNGAIFSDCSRLRSELLDISVKLVQKDVPCVELDRAEAITRGATKKLKKRDNEYERLDRQLLMIESSSSASSPESQPKIENIGDKCPTAVILNLLVRPKFGHSKVSYAVYWGENDEKNERGPVNMRAHAFQADLYAAMCALKKARSKNIRKLHLLTTSEYFKNWMENVQKKNELINDRYDVMMEFQLLLQNFESVTIEVVNSSTQGARRKMYEDAQTFFAGRNESIQKQRSIEDIQLEDPIENNIVEAESVNPESSNQIQVVYVGGACRGRGYANALAVYSVVWPIGEYGCSQGPVTGIVNNIRAKLAAVKSALQQAEQLGIASLIIRTNDQMVHDTLILQNSPIGNIDLMDDIESYKSRMRFVAYQLTTGDYARGNVVADRLAEVIVESIF”, the “soluble on expression in E. coli” value was “soluble”.

As for “MEGLLIDYVQPGSIAEELEIEAGDRLVAINGQDLRDIIDFSFYAHDEELALEIVKPSGDHWEAEIERDGDEPLGLVFAPPVPAQCGNKCVFCFVHQLPKGLRRPLYVKDEDYRLSFLYGNYVTLSNIRRGDLDRIVAQRLSPLYISVHATNPALRERLLGRSEILPILDLMRELAAARIVMHSQIVLCPGLNDGVELEKTVRDLAGLHPWVESLAIVPIGLTKHRRGLPALEPVTASYAETFVQNWQPAAERLERELGAPFLFIADEFYIKAGLPFPPLETYGDLPQIENGVGMIPLFLDESERVLKKARKGKPVTVTVVTGESPYRYLAAFLERLSVRTGATFKPVAVHNRLFGESVTVTGLVAGSDIVEELSGRDLGDAVLVPDVMLKEGEGIFLDDLSVDGLGKSLGTRVLVVEATPQGVVDALRRVRSMLEHHHHHH”, the “soluble on expression in E. coli” value is listed as “not soluble”.

As for “MSLGGDQAAGAVLPVTIFTARKFITMERGAPEATAVAVAGKRIVAAGSLAEVKTAVGSRPFTLDETFASKIVMPGLIDQHLHPVLGALTLAVEVIAPEDWVLPGGTHKAAGSADAYQARLKAADAKLDKPDAWLLTWGYHALWHGKLDRAALDAINPTRPIAVWHRSCHEFYLNTPALAALGISEAMTQNQGQASEQSNWREGHFWEGGLNLMMTPMLKVLATPERLAFGLKQMVSYLHANGVTAYMEPGALYTPDMWKLYEQILGAPETPMYATFIADGRGIVDRVGLDGALDAVEQQIAVAPEAPGRKLMFFPGQIKLFADGAIISQLMQMKDGYLDGHQGEWIIPPDELERRARLFWNAGYQIHTHVNGDLGLEKLLDILEKLNAEHPRPDHRSVIVHFANSTEDQVARIKRLGALVSANPYYTTGFADKYSAVGLGPERADAMVRAKSVLDQGVPLSYHSDLPMAPSAPLYLAWCGVNRLTPSGRVAGPEQRVSVDAALRAITIEAAYSWRHEDQLGSIAPGKIANFTVLEQDPYAVPPEQLKDVPIWGTVFEGRVFPVGREGHHHHHH”, the “soluble on expression in E. coli” value was “soluble”.

“MSTLAQLLDTKRTALAAELAGFIDRSVSQSSGISGVALKGAVAAAKKVRPDIVTKGAERLLPEVVEVLDPYWASFEASDSTHFGEFLEQHKSEVSDKILEVADRNAEKVDMPALKKAYGSLRGKAASFIEPNLPGLGQIMQNYMK”: the “soluble on expression in E. coli” value was “not soluble”.

“MWKIELSDWTDDEFKHIVDFFTNQNILQPLETRRVRYLEMLLFNRSFMIFFPNIIDNHPELFMPCKARPNPPDVPIAVRVFTFEDRKMVMRSELFKAINMKYPNRKPIEYNDVNGFLYAMELKDVFKNFGDLWHDIDFLNTPINRTNQKAVPIITSTGDFCIPGFRAFSEIFYLMSLIMRVFQKVKINSMHVLDDYIKILVSQLEPFLKSQCFITTDAFQKIEQEMCNYWKKFENIPVKDIRDVKRFTLNDLKKELKYLGITEAFPDVLVYADLAFPKLLESVSQNKLETIDMFEAVAECTYCCLLDKYLELVQVWFPQFGSHKMFCSILPPDPVDIFLGVSSSHKDLRRYIKGEDKENMKVKDTSNPQVMKNQRENPKSISKPEGNNSDTPTESGNSSSSKVESSMANCTDCSGVRKEMKTVQNVLKDVQTQLTTMKHKSEKFEKNMTGSVERSKKAEQRLQEEKLDHVKIQVEAKKKLELKLEEVETWKKQVSALWNCKSDHEALNTKLSKCVEKGKKLKEINEKVSNSRDQLSTKVFELKLQLNRELETAETLKNERKDSAKLRNEVNQLKDQLEREREIAYGLQEEASKLRVGTGKDVKRQILESENAQLRQEKQRREMEKSSLLETKMILSRQNEEQHKLIQSLMDQNHTEEGPSNHEDENGSYRKVLWKHQKIKDLYRKGEQQREAEEMVNKLISLNQHPEVQHISFLELESFKKQISDYLHTVEKNIQKIKRNDDFTNLEPLPEPPKMSDKFMRLYWNEMNKQPSTSDLPSAELDDTDQL”: the “soluble on expression in E. coli” value is recorded as “not soluble”.
